The source of these data is patent publication US6022951A (priority 1996, dated 2000).

This series can be described thus: stability against denaturation by guanidine hydrochloride (remaining biotin-binding ability). It is filed as physicochemical. The protocol:
Biotin-binding ability was used as an estimate of the structural stability.
Structural stability of core streptavidins against denaturation was estimated from the biotin-binding ability after incubation in guanidine hydrochloride solutions at pH 7.4 and pH 1.5. […] Then, 1.4 μl (680 pmol) of D-[carbonyl-^14 C]biotin was added to each solution. The mixture was incubated at 22° C. for 10 minutes and streptavidin-biotin complexes were separated from free, unbound biotin using PD-10 columns which had been equilibrated with the same guanidine hydrochloride solution (R. -D. Wei, Methods Enzymol. 18A:424-27, 1980).
All of the three core streptavidins bound more than 0.96 molecules of biotin per subunit at pH 7.4 without guanidine hydrochloride and the biotin-binding ability remaining in guanidine hydrochloride is indicated in percent.

The mark [1] stands for this setting: 4 M guanidine hydrochloride, pH 1.5.
[2] abbreviates: 6 M guanidine hydrochloride, pH 7.4.

For “full-length streptavidin: full length streptavidin, monomer of 159 amino acids”, under setting [1], the “biotin bound per subunit in guanidine hydrochloride” value is on record as “about 0.826 molecules biotin per subunit” and the “reduction (loss) of biotin-binding ability” value is reported as about 15%. In addition, under setting [2], the “biotin bound per subunit in guanidine hydrochloride” value is given as “about 0.768 molecules biotin per subunit” and the “reduction in biotin-binding ability” value is listed as “about 20%”.
